# ± gives the standard deviation of the averaged measurements.
# B1: library; a variant is named by its letters at N, in order (parent)
# chain: GCUGUCACCGGUGCUUGGUACGUUAUAUUCAGCCGGUCUGAUGAGUCUNNNNNNAGACGAAACAGC
# Experiments:
# (6R,S)-folinic acid [1] = variants of: B1; experiment: FACS-Seq fitted mean relative fluorescence mCherry/BFP without ligand (log10 relative fluorescence); HEK293T overexpressing SLC46A1; higher = higher reporter protein expression; conditions: without (6R,S)-folinic acid; ligand present: no
# Summary of the method: (§1)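 After lentiviral transduction, HEK293T library cells bearing an mCherry ribozyme-switch reporter and an EF1α-BFP marker were enriched. They were then held for 48 h with or without ligand and sorted by mCherry/BFP into 6 bins, and each bin's genomic DNA was PCR-amplified, barcoded and MiSeq-sequenced. Fluorescence is expressed as a normalized fitted mean: the normal mean of log10(mCherry/BFP) bin counts, scaled to five spiked-in control ribozymes.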
# (6R,S)-folinic acid [2] = variants of: B1; experiment: normalized RNA/DNA level without ligand (relative to sTRSVctl = 100) (log10 (% of sTRSVctl)); HEK293T overexpressing SLC46A1; higher = less ribozyme self-cleavage, higher mRNA level; conditions: without (6R,S)-folinic acid; ligand present: no
# Procedure: (§2)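 Hammerhead (sTRSV) ribozyme switch libraries with a ligand aptamer grafted on stem I and a randomized N4-6 loop II, cloned into the 3' UTR of mCherry and transiently transfected into HEK293T cells; RNA-Seq 72 h post transfection with ligand added 1 h before transfection; RNA read count / plasmid DNA read count normalized to the non-cleaving sTRSVctl (x100), log10; sequences with >100 DNA reads. FACS-Seq: lentiviral library sorted into 6 bins after 48 h ligand, log-normal fit mean of mCherry/BFP scaled to controls. Printed sequences are partial switch sequences.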
# (6R,S)-folinic acid [3] = variants of: B1; experiment: FACS-Seq fitted mean relative fluorescence mCherry/BFP with ligand (log10 relative fluorescence); HEK293T overexpressing SLC46A1; ligand concentration (+) FACS-Seq: 6 mM; higher = higher reporter protein expression; conditions: with (6R,S)-folinic acid; ligand present: yes
# Summary of the method: as §1
# (6R,S)-folinic acid [4] = variants of: B1; experiment: normalized RNA/DNA level with ligand (relative to sTRSVctl = 100) (log10 (% of sTRSVctl)); HEK293T overexpressing SLC46A1; ligand concentration (+) RNA-Seq: 6 mM; higher = less ribozyme self-cleavage, higher mRNA level; conditions: with (6R,S)-folinic acid; ligand present: yes
# Procedure: as §2
Variant,"FACS-Seq fitted mean (log10) ((6R,S)-folinic acid [1])","normalized RNA/DNA level without ligand (log10) ((6R,S)-folinic acid [2])","FACS-Seq fitted mean (log10) ((6R,S)-folinic acid [3])","normalized RNA/DNA level with ligand (log10) ((6R,S)-folinic acid [4])"
GCAACU,0.431 ± 0.019,2.0623 ± 0.00038,0.667 ± 0.22,2.06 ± 0.029
AAUGAG,0.455 ± 0.051,1.778 ± 0.0047,0.7222 ± 0.0013,1.97 ± 0.021
AAUGAA,0.442 ± 0.1,1.956 ± 0.0073,0.46 ± 0.055,2 ± 0.029
AAUACU,0.3 ± 0.014,1.995 ± 0.017,0.384 ± 0.13,1.99 ± 0.026
ACAGCA,0.531 ± 0.039,2.015 ± 0.012,0.555 ± 0.17,2.04 ± 0.037
ACAGCG,0.271 ± 0.031,1.82 ± 0.023,0.411 ± 0.034,2.01 ± 0.031
AAUAUG,0.207 ± 0.053,1.895 ± 0.0025,0.137 ± 0.061,1.99 ± 0.034
AAUAUU,0.567 ± 0.082,1.981 ± 0.011,0.295 ± 0.01,1.99 ± 0.029
AAUAUC,0.448 ± 0.061,2.03 ± 0.042,0.348 ± 0.12,2.02 ± 0.048
AAUAUA,0.602 ± 0.02,1.95 ± 0.0055,0.4362 ± 0.00063,1.99 ± 0.039
UCACCG,0.426 ± 0.13,1.971 ± 0.006,0.151 ± 0.15,2.01 ± 0.03
UAUCAU,0.312 ± 0.043,1.954 ± 0.0086,-0.0472 ± 0.12,1.99 ± 0.041
UAUCAG,0.285 ± 0.25,1.84 ± 0.024,0.328 ± 0.29,1.95 ± 0.025
UAUCAA,0.142 ± 0.016,1.957 ± 0.019,0.277 ± 0.084,2 ± 0.053
UCAACC,0.654 ± 0.28,2.04 ± 0.023,0.606 ± 0.39,1.978 ± 0.017
UCAACU,0.46 ± 0.092,2.03 ± 0.0056,0.559 ± 0.13,2.04 ± 0.027
GCAAAA,0.327 ± 0.023,1.989 ± 0.0033,0.174 ± 0.032,2 ± 0.051
GCAAGG,0.437 ± 0.041,1.957 ± 0.007,0.376 ± 0.13,2.04 ± 0.049
GCAAGA,0.477 ± 0.0057,2.022 ± 0.0049,0.457 ± 0.12,2.04 ± 0.024
CAUGAA,-0.00657 ± 0.027,1.954 ± 0.014,-0.0505 ± 0.07,1.98 ± 0.045
CCAAAA,0.502 ± 0.074,1.971 ± 0.0043,0.496 ± 0.19,1.96 ± 0.022
AAUCGG,0.494 ± 0.13,1.94 ± 0.017,0.573 ± 0.06,2.01 ± 0.027
AAUCGC,0.375 ± 0.075,2.027 ± 0.017,0.448 ± 0.18,2.01 ± 0.029
UAUUGA,0.265 ± 0.09,1.91 ± 0.025,0.57 ± 0.12,1.985 ± 0.003

Variant,"FACS-Seq fitted mean (log10) ((6R,S)-folinic acid [1])","normalized RNA/DNA level without ligand (log10) ((6R,S)-folinic acid [2])","FACS-Seq fitted mean (log10) ((6R,S)-folinic acid [3])","normalized RNA/DNA level with ligand (log10) ((6R,S)-folinic acid [4])"
UAUUGG,-0.0117 ± 0.013,1.59 ± 0.037,0.338 ± 0.024,1.91 ± 0.034
GAUAUG,0.0919 ± 0.075,1.919 ± 0.005,0.0285 ± 0.14,2 ± 0.038
GAUAUA,0.295 ± 0.015,1.96 ± 0.005,0.482 ± 0.11,2 ± 0.028
GAUUAG,-0.00141 ± 0.0098,1.95 ± 0.0067,-0.175 ± 0.038,2.005 ± 0.013
GAUUAA,0.2664 ± 0.0013,1.977 ± 0.0031,0.453 ± 0.16,2 ± 0.028
GAUUAU,0.371 ± 0.018,1.97 ± 0.013,0.305 ± 0.0094,1.992 ± 0.012
GCAGGA,0.7 ± 0.19,1.972 ± 0.0072,0.642 ± 0.041,2.02 ± 0.023
GCAGGG,0.107 ± 0.12,1.9807 ± 0.00024,0.128 ± 0.053,2.04 ± 0.036
AAUGCG,0.217 ± 0.13,1.839 ± 0.018,0.405 ± 0.11,2 ± 0.03
AAUGCA,0.514 ± 0.0055,1.99 ± 0.03,0.45 ± 0.072,2.02 ± 0.034
UAUGGG,0.1983 ± 0.0014,1.54 ± 0.028,0.816 ± 0.12,1.91 ± 0.045
UAUGGC,-0.0353 ± 0.039,1.948 ± 0.014,-0.149 ± 0.14,2 ± 0.032
UAUGGA,0.416 ± 0.029,1.828 ± 0.012,0.472 ± 0.013,1.98 ± 0.021
UCAAGC,0.599 ± 0.019,2.071 ± 0.0039,0.553 ± 0.17,2.05 ± 0.04
UCAAGA,0.185 ± 0.046,1.9951 ± 0.0012,0.305 ± 0.13,2.028 ± 0.014
CAUGUU,-0.0794 ± 0.016,2.027 ± 0.017,-0.27 ± 0.064,2.04 ± 0.029
CAUGUG,0.241 ± 0.086,2 ± 0.025,0.351 ± 0.27,1.992 ± 0.011
ACACAU,0.23 ± 0.019,1.965 ± 0.0028,0.348 ± 0.25,2 ± 0.043
CCAGAU,0.213 ± 0.0078,2.003 ± 0.0083,0.000255 ± 0.023,2.01 ± 0.027
GCAGCG,0.175 ± 0.0041,1.977 ± 0.016,0.0708 ± 0.18,2.03 ± 0.022
ACACCA,0.658 ± 0.22,2.035 ± 0.0068,0.462 ± 0.1,2.03 ± 0.022
ACACCG,0.142 ± 0.015,1.99 ± 0.022,0.198 ± 0.14,2.01 ± 0.022
UCAGAU,0.523 ± 0.0091,1.95 ± 0.0075,0.201 ± 0.13,2.013 ± 0.011
UAUGAC,0.193 ± 0.17,1.971 ± 0.01,0.413 ± 0.083,2 ± 0.053

Variant,"FACS-Seq fitted mean (log10) ((6R,S)-folinic acid [1])","normalized RNA/DNA level without ligand (log10) ((6R,S)-folinic acid [2])","FACS-Seq fitted mean (log10) ((6R,S)-folinic acid [3])","normalized RNA/DNA level with ligand (log10) ((6R,S)-folinic acid [4])"
UAUGAG,0.159 ± 0.026,1.609 ± 0.0041,0.709 ± 0.075,1.9 ± 0.045
UAUGAU,0.263 ± 0.038,1.911 ± 0.013,0.486 ± 0.099,1.97 ± 0.027
AAUAGU,0.361 ± 0.12,1.928 ± 0.0047,0.623 ± 0.097,1.978 ± 0.018
AAUAGG,0.164 ± 0.037,1.877 ± 0.0074,0.334 ± 0.2,1.99 ± 0.028
AAUAGA,0.354 ± 0.04,1.96 ± 0.024,0.344 ± 0.043,2.01 ± 0.034
UCAGGU,0.531 ± 0.015,1.9204 ± 0.0013,0.603 ± 0.23,1.99 ± 0.024
UCAGGG,0.0969 ± 0.0033,1.81 ± 0.032,0.351 ± 0.2,1.99 ± 0.041
UCAGGA,0.149 ± 0.13,1.901 ± 0.011,-0.0151 ± 0.03,1.98 ± 0.032
CAUUAU,0.4935 ± 0.0016,1.976 ± 0.011,0.36 ± 0.13,1.98 ± 0.056
CAUUAC,0.716 ± 0.11,1.984 ± 0.003,0.484 ± 0.06,1.98 ± 0.036
GAUGCG,0.444 ± 0.16,1.941 ± 0.011,0.693 ± 0.15,2.02 ± 0.07
GAUGCA,0.5601 ± 0.0038,2.009 ± 0.0054,0.5189 ± 0.004,2.04 ± 0.035
AAUCUA,0.267 ± 0.13,1.99 ± 0.013,0.439 ± 0.27,2.014 ± 0.013
AAUCUU,0.524 ± 0.12,2.002 ± 0.013,0.276 ± 0.024,2.013 ± 0.017
GAUUGA,0.422 ± 0.12,1.999 ± 0.019,0.519 ± 0.3,2.02 ± 0.048
GAUUGU,0.143 ± 0.011,1.995 ± 0.0038,0.365 ± 0.11,2.024 ± 0.0059
GCACAC,-0.179 ± 0.1,1.966 ± 0.0048,-0.0397 ± 0.2,2 ± 0.037
GCACAA,-0.45 ± 0.18,1.9848 ± 8e-05,-1.15 ± 0.17,2 ± 0.039
UAUCGG,0.113 ± 0.039,1.69 ± 0.028,0.6479 ± 0.00075,1.94 ± 0.028
CAUCGC,0.37 ± 0.072,2.019 ± 0.0067,0.228 ± 0.031,1.99 ± 0.041
AAUGUC,-0.0892 ± 0.053,2.075 ± 0.01,-0.24 ± 0.095,2.037 ± 0.0021
AAUUUG,0.443 ± 0.039,1.952 ± 0.016,0.374 ± 0.038,2.02 ± 0.024
AAUUUU,0.217 ± 0.14,2.04 ± 0.029,0.309 ± 0.3,2.01 ± 0.025

# Reference: the supplement of paper PMC6757056
